# Biological target: the molecule itself
# Assay: PrP aggregate formation assay (PAFA, thioflavin T fluorescence)
protein,measurement,value
His-tagged mouse recombinant PrP (23-231) (domain or fragment) not shown,binding result,binds
